Assay results as given in a protein production outcome set (Wang et al. 2014).

Assay: label from the status in PepcDB records
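Also: failed if final PepcDB status was selected cloned or expressed and not failed if soluble or beyond.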

Sequence	protein production
MYEHQTYEAILVRMLARVPETIDKREGSLIYDALAPGAAELAQAYAELVVNNNLSFADTASGEFLTRRAAEFGIKRKVATKAWRRGGFLDSNNALLNIPLGSRYSIGGLNYTAIEQISTGAYVLECETAGTAGNQQFGDLLPIAYVNSLARAELTEVLVPGEDEETDEALLSRYYETVNEPAFGGNMADYRQKVNAINGVGGTKVFPTWAGGGTVKCTIIASDWAKPSPELVNEVQSTMDPEENQGMGLGQAPIGHAVTIAGVDKVTVDVETTLTLAPGVTPGQVQSDVEAILDAYLLEQRKTWAAQTQIIIRMAQIDARMLTVQGVEDVTGTKLNGTEANFLLDEEEIPILGTVIINELEHHHHHH	failed
MYELTEDFKLRKITKYELDGVDEREDLLVIPPSSKAGPCGNGCLFCYLLQNPPEMIYRVARHDTLNDPTLEERIRYARKHYDLWIRVTDTSGNVKFDENRIKSLYEAGLDEIQISVHTTKKDVRIKLMRNRHAGKLIDLLPLVAKHFRTIADIILTPGFNVDDIGEIIEDLDSMGVHEVRLFPVGVTKYNRFEIRPLTKEE	failed
MYEPPNQFHCLDADVWIEIPNRVIGVTGNCYVGRDYIPKNGKTRYDVKVFVKKIKKEQENPDTLIKDNDLELSKSKSDDIGTLIEKGVNLRNFKKYDEALQIFEKVTELEPSNAQAWHNKGIILGILKKYNEARQAFEKAMEIEPGKNRRDCSSRHLRSARNRTSERNQGSNVEQ	failed
MYFSATLFNKYYKLLGTNDEGKLNLERTSSLAYFLALDQMQKDEEEPNAVINMYKDSLSRKNFMEKVGEIFVIAKNGSFEYQANILGCINKVEGGGNSMSSKTGKNFLSTQVISASSSPNPVGYPKRPAASFILELGFEIEGHKHGIKKSDSWKNNLMKFIEFRKCGTDTFPLIVFLLRDKQLNNNLDFNNAIREGLGSAYTQAVVDYLIVNAQVPSLVWDDLQNFATAPFTIDELDTELFMQDQPETNNLQPTVQVKEFKEIEIPNDISRNRIVYGAPGTGKSYKLNKDAKEFFPDDDLYIRVTLYPNYSYSQFVGTYKPTPIYKDVEGEFYKSDMVTSIGHGKEPLIDYTFVPGPFLIQLVNALKYPKSNFVIIIEEINRANAAAVFGDVFQLLDRKDDGESEYTITFNADVTNYLRKEGIFDLQIKIPKNLYIWATMNSADQGVTPLDTAFKRRWSFEYMPIDAGEGAVSSLEMELKFLENPILWNKFRKILNQKLKELMVPEDKLIGPFFMKSYELSNPESFKNKLLLYLRDDVLRHNATKFFKHQTFSDIVTAYDQGGNIFRTISKEELVRSE	not failed
MYIIFALLAFSALILVHELGHFIVAKLNGIYVEEFAIGMGPKLFGVKVGETEYNLRILPFGGFVKMLGEEDESDDSGSLNAKTPIQRILVMGAGAFMNYVLALIIFIGLAMSSGFAENKVASVVPNSPAQEIGIEQGDEFLKIDGNKIHTTDDFRMGLALAKGNPVELEIKRGNDVLTKTVQPILNESGMYQVGISYALVEKPTLLQGIKQGFNETRSLVSQSFIALKTIVTGEANLKTDVGGPVTIIKMSGQAAKAGANTLLWFMAFLSVQLAVFNLLPFPALDGGRIFIELIQMIIRKEIPAKYIEAVNTVGFMLLMGLMVLVTIKDIIFPIL	failed
MYKDEMIQLHQFLVYVLKYLENGYDIKDECEEYFSLNISPHHIHRTKAEHKYAIFVLSSAISEILARKEGNNLPPNVVNGLSELARRSRKEVVKMEARLEAK	failed
MYKTQKNHIRCDKQTYRLLRQLCHFSKNLYNYALYHIRQHYFKTQEYLRYESVYHLVKESEDYRLLPSQVAQQTLISVIEAFKSFLGLLRAEKEGKVEERVSMPKYLPKDGMYQIVFPKDQFKTEGKKVRLSLGRGFAKEFGVKYLYFDLPATVLGKEIREVRIIPRFNGRWFEIEYVYEDKQQLGIFDLSRYLGVDLGLDNFAAVVDTIGTAFLIEGRFLKSVNRWYNKERARLQSIYSRQGIKCGRKLALVSRKRQHIIDNFLNQAVSLIIKHCLNNQISAVVVGEMKDIKQGIELGVVNNQNFVGIPYDKFKRKLKSKCMYYGIRYVEVDESYTSQRCSRCGHVSKSSRRYRGLYVCKKCGYVVNADINGAINIVAKVAGESVVKQITSSGCVNHPVRIRVA	failed
MYKYITILGAAGQIAQKLTATLLTYTDMHITLYGRQLKTRIPPEIIDHERVTVIEGSFQNPGKLEQAVTNAEVVFVGAMESGSDMASIVKALSRKNIRRVIGVSMAGLSGEFPVALEKWTFDNLPISYVQGERQARNVLRESNLNYTILRLTWLYNDPEKTDYELIPEGAQFNDAQVSREAVVKAIFDILHAADETPFHRTSIGVGEPGTHYDKPSFH	not failed
MYLCGSNQSRKETLENKRYNNVEEWANTLSHGAGILLGVIAGYFLLAKAAAGAEPKWAVACVTVYLFGMLSSYVSSTWYHGSRPGKLKELLRKFDHGAIYLHIAGTYTPFTLLVMRHAGGWGWGIFSFVWLSAIVGFILSFKKLKEHSNLETACYIAMGACILVAMKPLMDHLAEMGAGPAFWWLIGGGVSYIIGAVFYSLRKPYMHATFHLFCLGGSIGHIIAIWLIL	failed
MYLPLLMALVVALSSCSNKMGALSSDYFTTTPQVLEAVGGKVPVTINGKFPEKYFKKNAVVEVTPVLKWEGGQVKGQPAVFQGEKVEGNDQTISYKMGGNYTMKTTFDYVPEMAKSELYLEFNAKVGKKTIAIPAVKIADGVISTSELINNTLSSANPALGDDAFQRIIKEAHNANIMFLIQQANIRSSELKTAKEFNKEVANVNDAENKKISNIEISAYASPDGGVKLNTGLAENREGNTTKLINKDLKKAKIEVPVDAKYTAQDWEGFQELVSKSNIQDKELILRVLSMYQDPEQRETEIKNISSVYKTLADEILPQLRRSRLTLNYEIIGKSDEEIANLAATDPKQLNVEEILYAATLTNDPAKKADIYTKASQQFPNDYRAFNNLGKLAYQAGDLDKAQSYVKKAESIKSAPEVNMNLGLIALAKGDKAAAESYLGKAAGAKELNETLGNLYVAQGQYERAVNAFGDTKTNSAALAQILAKDYNKAKNTLAGIATPDAYTDYLMAVLGARTNNTSMLTSSLKSAVAKNPALAKKAATDLEFAKYYTNADFMSIVK	failed
MYPKKQACCPAMVMPYTLHAERTRVEVIPERGGLISRWQWQGHELLYLDRERFANPQFSVRGGIPLLFPICGNLPEDAFHDNGQTYHLKQHGFARDLPWQVLDQRQHVLKLGLQDTPATRQVYPFAFHLTLTYTLAADALAIALEVANPGDIPLPFSFGLHPYFAVADKHQLQFDLPIHAMVDQKTQQPLTFSGTFDWSAAELDWACRPLTGQVARVFDLQQQYCLTLRYDTAFTTLVFWTVQGKPYYCLEPWTAPRNALNTGVDLLHVPPQKHLTLGVEIAVAPL	failed
MYQAVVFFDLDGTLMQDDKTVAASSVRAIQQLRANHVLPVIATGRNVFEVQDVMTTTGIDSIVSANGSYVAYQGQFLSAHELDKELLTDITHFANRQQNALAYYNNAGFALSHRDALTTSNYRALRQTARVAPHFYEHQHINFLLTFDPLNAAQYRQRYRGRLHFVRNNPRALDTMQWGVSKAVGIQDILTKAHLTKVPTYAFGDQLNDIEMFRMIQTPIAMGNGHPQVKQLARYVTADNMHGGIAQGLQHFDLI	failed
MYQVAICDPIHAKGIQILEAQKDIVLHDYSKCPKKELLEKLTPMDALITRSMTPITSDFLKPLTHLKSIVRAGVGVDNIDLESCSQKGIVVMNIPTANTIAAVELTMAHLINAVRSFPCANDQIKHQRLWKREDWYGTELKNKKLGIIGFGNIGSRVGIRAKAFEMEVLAYDPYIPSSKATDLGVIYTKNFEDILQCDMITIHTPKNKETINMIGAKEIERMKKGVILLNCARGGLYNEDALYEALETKKVRWLGIDVFSKEPGIHNKLLDLPNVYATPHIGANTLESQEEISKQAAQGVMESLRGSSHPHALNLPMQAFDASAKAYLNLAQKLGYFSSQIHKGVCQKIELSLCGEINQFKDALVAFMLVGVLKPVVGDKINYINAPFVAKERGIEIKVSLKESASPYKNMLSLTLNAANGTISVSGTVFEEDILKLTEIDGFHIDIEPKGKMLLFRNTDIPGVIGSVGNAFARHGINIADFRLGRNTQKEALALIIVDEEVSLEVLEELKNIPACLSVHYVVI	failed
MYRAAIPNLFTLGNLYSGFLSIGYASLGYYKSAAILVLIGMMLDSLDGRVARLLRVDSQMGKELDSLADVVTFGAAPAVLMYYTSFSNYGIIGLYIAGLFPLFGAYRLARFNVTPSSTSMKYFTGVPITAAGGLVAFLTLFSHTIPKIVLITVFVTFAFLMVSRIRIPSLKDVPIPRYSIIITLFLVGIIITMYQTGFGNFSVFLFIAIPLYILYMLSQFIRQRPSKKANKEK	failed
